These are literature values, as cited in publication PMC6295873 (Chemical Science, 2018).

The conditions of data set [1]: MUC1-based anticancer-vaccines; ref 39 (preceding sentence).

As for “natural MUC1 glycoprotein: densely O-glycosylated human mucin glycoprotein”, in data set [1], the immunogenicity result was “very low immunogenicity”.

For the substance “KP10: endogenous neuropeptide acting through its cognate G-protein-coupled receptor, KiSS1R”, the half-life in blood is reported as less than 1 min.
